Values of other authors, collected in paper PMC4067574.
pKd: −log10 of the molar value. Like-named read-outs stand apart in the source and are kept apart here.

Tests used:
[1] = target: C3b C3b (Homo sapiens) (UniProt P01024)
[2] = target: C3b C3b (Homo sapiens) (UniProt P01024); remark: listed apart in the source

Sequence of C3b C3b (Homo sapiens) (P01024 566-670): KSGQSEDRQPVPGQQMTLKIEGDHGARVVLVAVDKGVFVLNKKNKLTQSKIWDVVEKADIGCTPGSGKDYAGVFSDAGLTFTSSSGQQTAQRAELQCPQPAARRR
Sequence of complement factor H rFH1-4 N-terminal modules 1-4 (P08603 19-264): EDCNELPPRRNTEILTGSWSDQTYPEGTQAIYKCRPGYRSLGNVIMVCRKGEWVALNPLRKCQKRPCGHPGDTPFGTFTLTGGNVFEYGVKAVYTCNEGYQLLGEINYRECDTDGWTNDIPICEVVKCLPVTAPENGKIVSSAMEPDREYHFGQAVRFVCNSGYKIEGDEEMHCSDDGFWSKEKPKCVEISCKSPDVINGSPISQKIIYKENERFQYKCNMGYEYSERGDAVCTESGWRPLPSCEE
Sequence of complement factor H C-terminal fragment C-terminal two modules (P08603 1103-1231): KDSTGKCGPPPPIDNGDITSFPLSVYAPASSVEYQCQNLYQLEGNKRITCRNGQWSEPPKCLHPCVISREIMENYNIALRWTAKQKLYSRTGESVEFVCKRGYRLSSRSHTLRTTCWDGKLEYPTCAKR

Row | pKd [1] | pKd [2] | Substance
1 | 5.00 |  | complement factor H rFH1-4 N-terminal modules 1-4 (from UniProt P08603)
2 |  | 5.40 | complement factor H C-terminal fragment C-terminal two modules (from UniProt P08603)
